Source: patent EP0935607B1

Legend:
[1] = target: recombinant HLA-DR2 fusion protein (DRα-Fos / DRβ-Jun heterodimer, DRA*0101 / DRB1*1501) secreted by Pichia pastoris (human); experiment: time course ELISA at 37°C, 200 nM DR2, 2 µM peptide, L243 capture
[2] = target: detergent soluble DR2 purified from an EBV transformed B cell line (human) (UniProt P01903); experiment: as above

time to 50% maximum binding [1]: 3 h | time to plateau of binding [1]: 18 h | time to plateau of binding [2]: > 48 h
Substance: biotinylated MBP(85-99) peptide, biotin-SGSG-MBP(85-99) (from UniProt P02686 85-99)
